# Experimental data as given in patent publication US20090149339A1 (published 2009).
# Ends that are not written are not given here. * marks the point of attachment. Biotin = O=C1N[C@H]2[C@H](CS[C@H]2CCCCC(=O)*)N1
# B1: CC CKR-4 C-terminal PL peptide AA44L, biotinylated (peptide)
# peptide: Biotin-DTPSSSYTQSTMDHDLHDAL
# B2: FceRIb C-terminal PL peptide AA25L, biotinylated (peptide)
# peptide: Biotin-YSATYSELEDPGEMSPPIDL
# notes: also called Fc epsilon receptor beta I chain
# Target: T1, GST-KIAA0316 PDZ domain fusion protein (KIAA0316 AA197-284; PDZ domain 1 of 1) (UniProt P08515 1-218 = GST)
# T1 construct: also called K316
# Assay: A/G assays
# T1 sequence (P08515 1-218, tags or fused parts left off): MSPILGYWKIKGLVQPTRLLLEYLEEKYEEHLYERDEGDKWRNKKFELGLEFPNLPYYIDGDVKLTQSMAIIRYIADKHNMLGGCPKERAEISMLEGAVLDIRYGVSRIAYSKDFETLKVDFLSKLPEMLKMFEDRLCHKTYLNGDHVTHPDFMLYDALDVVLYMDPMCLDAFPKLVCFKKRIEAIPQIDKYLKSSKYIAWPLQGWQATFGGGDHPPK
row,Binder,binding result
1,B1,no binding
2,B2,no binding

# Target: T2, GST-TAX43 PDZ domain fusion protein (human tax interaction protein 43 AA15-85; PDZ domain 1 of 1) (human, UniProt P08515 1-218 = GST)
# T2 construct: also called TX 43
# Assay: A/G assays
# T2 sequence (P08515 1-218, tags or fused parts left off): as above
row,Binder,binding result
1,B1,no binding
2,B2,no binding

# Target: GST-PSD95 PDZ domain fusion protein (human post-synaptic density protein 95 AA387-724; PDZ domains 1-3 of 3) (human, UniProt P08515 1-218 = GST)
# Assay: A/G assays
# Chain of GST-PSD95 PDZ domain fusion protein (human post-synaptic density protein 95 AA387-724; PDZ domains 1-3 of 3) (P08515 1-218, tags or fused parts left off): as above
row,Binder,binding result
1,B1,no binding
2,B2,no binding

# Target: T3, GST-KIAA0303 PDZ domain fusion protein (KIAA0303 AA652-742; PDZ domain 1 of 1) (UniProt P08515 1-218 = GST)
# T3 construct: also called K303
# Assay: A/G assays
row,Binder,binding result
1,B1,no binding
2,B2,no binding

# Target: GST-DVL1 PDZ domain fusion protein (human dishevelled segment polarity protein homolog AA248-340); PDZ domain … (human, UniProt P08515 1-218 = GST)
# Assay: A/G assays
row,Binder,binding result
1,B1,no binding
2,B2,no binding

# Target: GST-LIM PDZ domain fusion protein (Human LIM protein AA29-112; PDZ domain 1 of 1) (human, UniProt P08515 1-218 = GST)
# Assay: A/G assays
# Chain of GST-LIM PDZ domain fusion protein (Human LIM protein AA29-112; PDZ domain 1 of 1) (P08515 1-218, tags or fused parts left off): as above
row,Binder,binding result
1,B1,no binding
2,B2,no binding

# Target: T4, GST-RGS12 PDZ domain fusion protein (human regulator of G-protein signalling 12 AA35-103; PDZ domain 1 of 1) (human, UniProt P08515 1-218 = GST)
# T4 construct: also called RSG12
# Assay: A/G assays
# T4 sequence (P08515 1-218, tags or fused parts left off): as above
row,Binder,binding result
1,B1,no binding
2,B2,no binding

# Target: T5, GST-MPP2 PDZ domain fusion protein (maguk p55 subfamily member 2 (DLG2) AA185-273; PDZ domain 1 of 1) (UniProt P08515 1-218 = GST)
# T5 construct: also called MMP2
# Assay: A/G assays
# T5 sequence (P08515 1-218, tags or fused parts left off): as above
row,Binder,binding result
1,B1,no binding
2,B2,no binding

# Target: GST-PTN-4 PDZ domain fusion protein (protein-tyrosine phosphatase meg1 AA774-862; PDZ domain 1 of 1) (UniProt P08515 1-218 = GST)
# Assay: A/G assays
# Chain of GST-PTN-4 PDZ domain fusion protein (protein-tyrosine phosphatase meg1 AA774-862; PDZ domain 1 of 1) (P08515 1-218, tags or fused parts left off): as above
row,Binder,binding result
1,B1,no binding
2,B2,no binding

# Target: T6, GST-KIAA0559 PDZ domain fusion protein (KIAA0559 AA766-870; PDZ1 of 1) (UniProt P08515 1-218 = GST)
# T6 construct: also called K559
# Assay: A/G assays
row,Binder,binding result
1,B1,no binding
2,B2,no binding

# Target: GST-prIL16 PDZ domain fusion protein (putative interleukin 16 precursor AA170-383; PDZ domains 1-2 of 2) (UniProt P08515 1-218 = GST)
# Assay: A/G assays
# Chain of GST-prIL16 PDZ domain fusion protein (putative interleukin 16 precursor AA170-383; PDZ domains 1-2 of 2) (P08515 1-218, tags or fused parts left off): as above
row,Binder,binding result
1,B1,no binding
2,B2,no binding

# Target: GST-AF6 PDZ domain fusion protein (af-6 protein AA985-1077; PDZ domain 1 of 1) (UniProt P08515 1-218 = GST)
# Assay: A/G assays
# Chain of GST-AF6 PDZ domain fusion protein (af-6 protein AA985-1077; PDZ domain 1 of 1) (P08515 1-218, tags or fused parts left off): as above
row,Binder,binding result
1,B1,no binding
2,B2,no binding

# Target: GST-NOS1 PDZ domain fusion protein (human neuronal nitric oxide synthase; PDZ domain 1 of 1) (human, UniProt P08515 1-218 = GST)
# Assay: A/G assays
# Chain of GST-NOS1 PDZ domain fusion protein (human neuronal nitric oxide synthase; PDZ domain 1 of 1) (P08515 1-218, tags or fused parts left off): as above
row,Binder,binding result
1,B1,no binding
2,B2,no binding

# Target: T7, GST-TAX33 PDZ domain fusion protein (tax interaction protein 33 AA73-162; PDZ domain 1 of 1) (UniProt P08515 1-218 = GST)
# T7 construct: also called TX33
# Assay: A/G assays
# T7 sequence (P08515 1-218, tags or fused parts left off): as above
row,Binder,binding result
1,B1,no binding
2,B2,no binding

# Target: GST-MPP1 PDZ domain fusion protein (55 Kd erythrocyte membrane protein AA101-186; PDZ domain 1 of 1) (UniProt P08515 1-218 = GST)
# Assay: A/G assays
# Chain of GST-MPP1 PDZ domain fusion protein (55 Kd erythrocyte membrane protein AA101-186; PDZ domain 1 of 1) (P08515 1-218, tags or fused parts left off): as above
row,Binder,binding result
1,B1,no binding
2,B2,no binding

# Target: T8, GST-41.8 kD PDZ domain fusion protein (hypothetical 41.8 kD protein AA4-85; PDZ domain 1 of 1) (UniProt P08515 1-218 = GST)
# T8 construct: also called hypoth
# Assay: A/G assays
row,Binder,binding result
1,B1,no binding
2,B2,no binding

# Target: GST-LIMK2 PDZ domain fusion protein (human LIM domain kinase 2 AA185-275; PDZ domain 1 of 1) (human, UniProt P08515 1-218 = GST)
# Assay: A/G assays
# Chain of GST-LIMK2 PDZ domain fusion protein (human LIM domain kinase 2 AA185-275; PDZ domain 1 of 1) (P08515 1-218, tags or fused parts left off): as above
row,Binder,binding result
1,B1,no binding
2,B2,no binding

# Target: T9, GST-TAX2 PDZ domain fusion protein (human tax interaction protein 2 AA54-140; PDZ domain 1 of 1) (human, UniProt P08515 1-218 = GST)
# T9 construct: also called TX 2
# Assay: A/G assays
# T9 sequence (P08515 1-218, tags or fused parts left off): as above
row,Binder,binding result
1,B1,no binding
2,B2,no binding

# Target: GST-MINT3 PDZ domain fusion protein (human MINT3 AA11-52; PDZ domain 1 of 1) (human, UniProt P08515 1-218 = GST)
# Assay: A/G assays
# Chain of GST-MINT3 PDZ domain fusion protein (human MINT3 AA11-52; PDZ domain 1 of 1) (P08515 1-218, tags or fused parts left off): as above
row,Binder,binding result
1,B1,no binding
2,B2,no binding

# Target: T10, GST-TAX40 PDZ domain fusion protein (human tax interaction protein 40 AA35-137; PDZ domain 1 of 1) (human, UniProt P08515 1-218 = GST)
# T10 construct: also called TX 40
# Assay: A/G assays
# T10 sequence (P08515 1-218, tags or fused parts left off): as above
row,Binder,binding result
1,B1,no binding
2,B2,no binding

# Target: T11, GST-SYN1a PDZ domain fusion protein (alpha1-syntrophin AA96-189; PDZ domain 1 of 1) (UniProt P08515 1-218 = GST)
# T11 construct: also called SYN 1 alpha; SYNTR 1 alpha
# Assay: A/G assays
# T11 sequence (P08515 1-218, tags or fused parts left off): as above
row,Binder,binding result
1,B1,no binding
2,B2,no binding

# Target: T12, GST-CBP PDZ domain fusion protein (Cytohesin binding protein HE AA85-175; PDZ domain 1 of 1) (UniProt P08515 1-218 = GST)
# T12 construct: also called Prot
# Assay: A/G assays
# T12 sequence (P08515 1-218, tags or fused parts left off): as above
row,Binder,binding result
1,B1,no binding
2,B2,no binding

# Target: T13, GST-NeDLG PDZ domain fusion protein (presynaptic protein sao102, neuroendocrine-dlg; PDZ domains 1-2 of 3) (UniProt P08515 1-218 = GST)
# T13 construct: also called NeDLG1
# Assay: A/G assays
# T13 sequence (P08515 1-218, tags or fused parts left off): as above
row,Binder,binding result
1,B1,no binding
2,B2,no binding

# Target: GST-TIAM1 PDZ domain fusion protein (T-lymphoma invasion and metastasis inducing protein 1 AA1001-1088); PDZ 1 … (UniProt P08515 1-218 = GST)
# Assay: A/G assays
# Chain of GST-TIAM1 PDZ domain fusion protein (T-lymphoma invasion and metastasis inducing protein 1 AA1001-1088); PDZ 1 … (P08515 1-218, tags or fused parts left off): as above
row,Binder,binding result
1,B1,no binding
2,B2,no binding

# Target: T14, GST-CASK PDZ domain fusion protein (CASK AA495-584; PDZ domain 1 of 1) (mouse, UniProt P08515 1-218 = GST)
# T14 construct: also called mCASK
# Assay: A/G assays
# T14 sequence (P08515 1-218, tags or fused parts left off): as above
row,Binder,binding result
1,B1,no binding
2,B2,no binding
